± gives the uncertainty stated by the source.
Assay: self-splicing fitness, log relative to wild type (ln ratio); higher = more splicing; Tetrahymena group I intron in knt gene, E. coli kanamycin selection, DiMSum; sequences stand for … in CUCUCU…GGAGGGAAAAGUUAUCAGGCAUGCACCUGGUAGCUAGUCUUUAAACCAAUAGAUUGCAUCGGUUUAAAAGGCAAGACCGUCAAAUUGCGGGAAAGGGGUCAACAGCCGUUCAGUACCAAGUCUCAGGGGAAACUUUGAGAUGGCCUUGCAAAGGGUAUGGUAAUAAGCUGACGGACAUGGUCCUAACCACGCAGCCAAGUCCUAAGUCAACAGAUCUUCUGUUGAUAUGGAUGCAGUUCACAGACUAAAUGUCGGUCGGGGAAGAUGUAUUCUUCUCAUAAGAUAUAGUCGGACCUCUCCUUAAUGGGAGCUAGCGGAUGAAGUGAUGCAACACUGGAGCCGCUGGGAACUAAUUUGUAUGCGAAAGUAUAUUGAUUAGUUUUGGAGUACUCGUGGUCG
Method in brief: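 DiMSum derived fitness as the error-weighted combination of fold changes across replicates, kanamycin versus no kanamycin, normalised to wild type. E. coli BL21(DE3) held the library, which randomised all eight P1ex-region intron nucleotides within the knt kanamycin-resistance gene on pET-22b(+). Six replicate transformations grew overnight at 37°C or 30°C on LB agar with or without 25 μg/mL kanamycin, also containing 100 μg/mL carbenicillin, 50 μM IPTG and 0.2% rhamnose, and pooled colonies were amplicon-sequenced on an Illumina HiSeq 2500.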

Row | Sequence | self-splicing fitness (ln) (37 °C) | self-splicing fitness (ln) (30 °C)
1 | UUGUAGCAAUAUUACGAAGG | -1.9 ± 0.47 | 
2 | UUGUAGCAAUAUUACGACAU | -0.322 ± 0.034 | -0.918 ± 0.015
3 | UUGUAGCAAUAUUACGAUGG | -0.75 ± 0.2 | -1.53 ± 0.16
4 | UUGUAGCAAUAUUACGCACA | -0.658 ± 0.22 | -0.174 ± 0.17
5 | UUGUAGCAAUAUUACGCAGU | -2.1 ± 0.3 | 
6 | UUGUAGCAAUAUUACGCCAG | -0.137 ± 0.2 | -0.515 ± 0.14
7 | UUGUAGCAAUAUUACGCUCG | -0.456 ± 0.25 | -0.29 ± 0.14
8 | UUGUAGCAAUAUUACGCUUA | -1 ± 0.2 | -1.77 ± 0.25
9 | UUGUAGCAAUAUUACGGACC | -1.46 ± 0.34 | -2.38 ± 0.25
10 | UUGUAGCAAUAUUACGGACU | -0.723 ± 0.16 | -1.65 ± 0.14
11 | UUGUAGCAAUAUUACGGAGC | -2.38 ± 0.29 | -3.08 ± 0.25
12 | UUGUAGCAAUAUUACGGCAG | 0.374 ± 0.18 | -0.0514 ± 0.14
13 | UUGUAGCAAUAUUACGGCGA | 0.227 ± 0.14 | 0.174 ± 0.1
14 | UUGUAGCAAUAUUACGGUCA | -0.486 ± 0.2 | -0.412 ± 0.17
15 | UUGUAGCAAUAUUACGGUCG | -0.593 ± 0.15 | -0.458 ± 0.12
16 | UUGUAGCAAUAUUACGGUGC | -2.07 ± 0.34 | -2.37 ± 0.45
17 | UUGUAGCAAUAUUACGUAAG | -1.02 ± 0.16 | -2.25 ± 0.17
18 | UUGUAGCAAUAUUACGUCAA | -0.538 ± 0.16 | -0.947 ± 0.16
19 | UUUAAGCAAUAUUACGACAG | -0.475 ± 0.2 | -0.664 ± 0.15
20 | UUUAAGCAAUAUUACGACCC | 0.0123 ± 0.28 | -1.3 ± 0.31
21 | UUUAAGCAAUAUUACGACGA | 0.29 ± 0.11 | 0.228 ± 0.089
22 | UUUAAGCAAUAUUACGAGAU | -0.782 ± 0.16 | -3.92 ± 0.26
23 | UUUAAGCAAUAUUACGAGCG | -0.4 ± 0.17 | -0.94 ± 0.14
24 | UUUAAGCAAUAUUACGAUAA | 0.228 ± 0.13 | -0.773 ± 0.1

Row | Sequence | self-splicing fitness (ln) (37 °C) | self-splicing fitness (ln) (30 °C)
25 | UUUAAGCAAUAUUACGAUCA | 0.00531 ± 0.11 | -0.491 ± 0.1
26 | UUUAAGCAAUAUUACGAUGA | -0.175 ± 0.14 | 0.318 ± 0.13
27 | UUUAAGCAAUAUUACGCCCU | 0.0801 ± 0.28 | -0.119 ± 0.24
28 | UUUAAGCAAUAUUACGCCUG | -0.13 ± 0.14 | -0.642 ± 0.14
29 | UUUAAGCAAUAUUACGCGCU | -0.609 ± 0.2 | -1.15 ± 0.18
30 | UUUAAGCAAUAUUACGCGGC | -2.78 ± 0.31 | 
31 | UUUAAGCAAUAUUACGCGGG | -1.63 ± 0.14 | -1.81 ± 0.13
32 | UUUAAGCAAUAUUACGCGUG | -0.368 ± 0.14 | -1.15 ± 0.13
33 | UUUAAGCAAUAUUACGCUCA | -0.395 ± 0.17 | -0.755 ± 0.15
34 | UUUAAGCAAUAUUACGCUGU | -1.79 ± 0.18 | -3.57 ± 0.21
35 | UUUAAGCAAUAUUACGGACG | 0.235 ± 0.19 | -0.647 ± 0.15
36 | UUUAAGCAAUAUUACGGCAU | -0.239 ± 0.12 | -1.59 ± 0.11
37 | UUUAAGCAAUAUUACGGCUG | -0.292 ± 0.16 | -0.528 ± 0.13
38 | UUUAAGCAAUAUUACGGGAA | -0.806 ± 0.095 | -1.63 ± 0.094
39 | UUUAAGCAAUAUUACGUAGA | 0.0733 ± 0.14 | -0.521 ± 0.098
40 | UUUAAGCAAUAUUACGUCUU | -1.81 ± 0.16 | -2.57 ± 0.15
41 | UUUAAGCAAUAUUACGUGUA | -0.799 ± 0.12 | -1.88 ± 0.12
42 | UUUAAGCAAUAUUACGUUAC | -3.05 ± 0.26 | -3.76 ± 0.3
43 | UUUAAGCAAUAUUACGUUCU | -0.963 ± 0.11 | -1.53 ± 0.11
44 | UUUAAGCAAUAUUACGUUGC | -2.97 ± 0.38 | -3.26 ± 0.43
45 | UUUCAGCAAUAUUACGACUG | -1.53 ± 0.18 | -2.89 ± 0.2
46 | UUUCAGCAAUAUUACGACUU | -0.00938 ± 0.099 | -0.723 ± 0.077
47 | UUUCAGCAAUAUUACGCAUG | -0.0959 ± 0.11 | -0.765 ± 0.093
48 | UUUCAGCAAUAUUACGCCUG | -1.02 ± 0.11 | -1.95 ± 0.12

Row | Sequence | self-splicing fitness (ln) (37 °C) | self-splicing fitness (ln) (30 °C)
49 | UUUCAGCAAUAUUACGCGCC | -0.992 ± 0.37 | -1.72 ± 0.24
50 | UUUCAGCAAUAUUACGCUCA | 0.404 ± 0.18 | -0.608 ± 0.17
51 | UUUCAGCAAUAUUACGCUCC | -1.02 ± 0.29 | -1.69 ± 0.22
52 | UUUCAGCAAUAUUACGCUGG | -1.77 ± 0.33 | -3.94 ± 0.3
53 | UUUCAGCAAUAUUACGCUGU | -2.19 ± 0.21 | -3.52 ± 0.13
54 | UUUCAGCAAUAUUACGGCAA | -0.0559 ± 0.11 | -0.476 ± 0.089
55 | UUUCAGCAAUAUUACGGCCG | -0.968 ± 0.26 | -0.936 ± 0.17
56 | UUUCAGCAAUAUUACGGCUA | 0.336 ± 0.12 | 0.189 ± 0.14
57 | UUUCAGCAAUAUUACGGUGU | -2.15 ± 0.18 | -2.91 ± 0.13
58 | UUUCAGCAAUAUUACGUAAC | -2.4 ± 0.27 | -3.2 ± 0.23
59 | UUUCAGCAAUAUUACGUACU | -0.647 ± 0.17 | -1.49 ± 0.15
60 | UUUCAGCAAUAUUACGUGUU | -2.87 ± 0.14 | -3.42 ± 0.13
61 | UUUGAGCAAUAUUACGAACA | -2.15 ± 0.21 | -2.9 ± 0.23
62 | UUUGAGCAAUAUUACGAACC |  | -2.5 ± 0.35
63 | UUUGAGCAAUAUUACGAAGU | -2.67 ± 0.3 | 
64 | UUUGAGCAAUAUUACGAUAC |  | -3.55 ± 0.48
65 | UUUGAGCAAUAUUACGAUGG | -1.77 ± 0.2 | -2.08 ± 0.17
66 | UUUGAGCAAUAUUACGAUUU | -2.05 ± 0.27 | -3.28 ± 0.24
67 | UUUGAGCAAUAUUACGCAGG | -1.34 ± 0.18 | -2.99 ± 0.21
68 | UUUGAGCAAUAUUACGCAUG | -0.524 ± 0.19 | -0.647 ± 0.12
69 | UUUGAGCAAUAUUACGCAUU | -1.09 ± 0.2 | -2.65 ± 0.27
70 | UUUGAGCAAUAUUACGCCUU | -2.2 ± 0.45 | 
71 | UUUGAGCAAUAUUACGCUGU |  | -3.01 ± 0.27
72 | UUUGAGCAAUAUUACGGAUC | -2.24 ± 0.44 | -3.24 ± 0.37

Row | Sequence | self-splicing fitness (ln) (37 °C) | self-splicing fitness (ln) (30 °C)
73 | UUUGAGCAAUAUUACGGCAU | -1.62 ± 0.3 | -1.56 ± 0.33
74 | UUUGAGCAAUAUUACGGGGA | -2.42 ± 0.41 | 
75 | UUUGAGCAAUAUUACGUAGC |  | -1.83 ± 0.32
76 | UUUGAGCAAUAUUACGUGCA | -1.96 ± 0.18 | -3.05 ± 0.21
77 | UUUGAGCAAUAUUACGUUUA | -2.21 ± 0.23 | -3.32 ± 0.24
78 | UUUUAGCAAUAUUACGAACG | 0.449 ± 0.18 | -0.665 ± 0.11
79 | UUUUAGCAAUAUUACGAACU | -0.164 ± 0.23 | -1.75 ± 0.34
80 | UUUUAGCAAUAUUACGAAGA | -1.21 ± 0.22 | -1.85 ± 0.31
81 | UUUUAGCAAUAUUACGACGG | -0.173 ± 0.18 | -0.13 ± 0.14
82 | UUUUAGCAAUAUUACGACUA | 0.109 ± 0.14 | -0.401 ± 0.18
83 | UUUUAGCAAUAUUACGACUU | -1.14 ± 0.33 | -1.64 ± 0.32
84 | UUUUAGCAAUAUUACGAGAG | -0.225 ± 0.21 | -1.12 ± 0.18
85 | UUUUAGCAAUAUUACGAUCG |  | -0.15 ± 0.26
86 | UUUUAGCAAUAUUACGAUGU | -1.6 ± 0.16 | -2.19 ± 0.23
87 | UUUUAGCAAUAUUACGCAUU | -1.27 ± 0.15 | -2.39 ± 0.11
88 | UUUUAGCAAUAUUACGCGCG | -0.122 ± 0.15 | -0.432 ± 0.11
89 | UUUUAGCAAUAUUACGCUUG | -0.13 ± 0.19 | -0.327 ± 0.2
90 | UUUUAGCAAUAUUACGGACU | -0.49 ± 0.35 | -2.67 ± 0.39
91 | UUUUAGCAAUAUUACGGUCU | -1.35 ± 0.2 | -2.23 ± 0.17
92 | UUUUAGCAAUAUUACGUAUU | -1.04 ± 0.38 | -3.2 ± 0.35
93 | UUUUAGCAAUAUUACGUGAA | -0.89 ± 0.1 | -1.14 ± 0.074
94 | UUUUAGCAAUAUUACGUGAG | -0.445 ± 0.22 | -0.331 ± 0.12
95 | UUUUAGCAAUAUUACGUGAU | -2.19 ± 0.32 | -2.76 ± 0.31
